T1: rhodanese (UniProt P00586 2-297)
T1 sequence: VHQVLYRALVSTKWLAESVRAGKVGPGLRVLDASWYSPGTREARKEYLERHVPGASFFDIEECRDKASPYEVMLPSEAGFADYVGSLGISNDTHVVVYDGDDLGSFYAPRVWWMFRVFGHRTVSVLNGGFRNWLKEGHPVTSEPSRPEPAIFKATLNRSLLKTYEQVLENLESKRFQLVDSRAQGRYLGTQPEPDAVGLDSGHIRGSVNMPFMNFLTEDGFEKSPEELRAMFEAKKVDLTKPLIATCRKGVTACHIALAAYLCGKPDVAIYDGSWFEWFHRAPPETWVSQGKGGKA

B1: sht-GroEL 191-345 (other)
chain: EGMQFDRGYLSPYFINKPETGAVELESPFILLADKKISNIREMLPVLEAVAKAGKPLLIIAEDVEGEALATLVVNTMRGIVKVAAVKAPGFGDRRKAMLQDIATLTGGTVISEEIGMELEKATLEDLGQAKRVVINKDTTTIIDGVGEEAAIQGR
B2: sht-GroEL 191-376 (other)
chain: EGMQFDRGYLSPYFINKPETGAVELESPFILLADKKISNIREMLPVLEAVAKAGKPLLIIAEDVEGEALATLVVNTMRGIVKVAAVKAPGFGDRRKAMLQDIATLTGGTVISEEIGMELEKATLEDLGQAKRVVINKDTTTIIDGVGEEAAIQGRVAQIRQQIEEATSDYDREKLQERVAKLAGGV

Key:
cyclophilin A = cyclophilin A (UniProt P62937 1-165); experiment: cell-based or functional assay
rhodanese [1] = target: T1, rhodanese; experiment: cell-based or functional assay
barnase [2] = target: T2, barnase (UniProt P00648 48-157); experiment: derived from the change from EX2 to EX1 amide proton exchange of barnase (NMR)
T2 sequence (P00648 48-157): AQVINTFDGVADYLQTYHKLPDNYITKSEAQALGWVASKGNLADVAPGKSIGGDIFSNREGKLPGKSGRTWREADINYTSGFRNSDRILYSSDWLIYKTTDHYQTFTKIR

rhodanese [3] = target: T1, rhodanese; experiment: estimated from the molar ratio giving maximal refolding yield of rhodanese
barnase [4] = target: T2, barnase; experiment: derived from amide proton exchange of barnase (NMR); reference value for intact GroEL from the literature

| Binder | refolding of inactivated cyclophilin A (cyclophilin A) [%] | rhodanese refolding activity (rhodanese [1]) [%] | rhodanese refolding activity above background refolding (rhodanese [1]) [%] | rhodanese refolding activity at about 25 mins (rhodanese [1]) [%] | rhodanese refolding activity after 25 mins (rhodanese [1]) [%] | koff (barnase [2]) [s⁻¹] | Kd (rhodanese [3]) [nM] | fold of the dissociation rate constant over that from intact GroEL (barnase [4]) [fold] |
| --- | --- | --- | --- | --- | --- | --- | --- | --- |
| B1 | 100 | ~42.5 | ~37.5 | ~50 | – | – | – | – |
| B2 | 100 | – | – | – | ~40 | ~2 | > 100 | < 5 |
